Test results from paper PMC7642358 (2020).

Legend:
[1] = biological target: T1, SARS-CoV-2 spike receptor-binding domain (2019-nCoV RBD-SD1, residues 319–566) (SARS-CoV-2, UniProt P0DTC2 319-566, chemically biotinylated with NHS-PEG4-Biotin for selection, ELISA and BLI); assay: BLI
[2] = biological target: T1, SARS-CoV-2 spike receptor-binding …; assay: BLI; remark: listed apart in the source

B1: Sb23-Fc (Sb23 fused to the Fc domain from human IgG) (Fc fusion)
chain: QVQLVESGGGLVQAGGSLRLSCAASGFPVESENMHWYRQAPGKEREWVAAIYSTGGWTLYADSVKGRFTISRDNAKNTVYLQMNSLKPEDTAVYYCAVQVGYWYEGQGTQVTVS
Kd [1]: 0.225 nM | koff [2]: 7.1e-05 s⁻¹
